This note sets out measurements from the supplement of paper PMC9170038.

The test system of this series is MS2 coat protein. Briefly: apparent KD of MS2 coat protein; designed switch direction (-1 OFF switch, 1 ON switch): -1; higher = weaker reporter binding. A digest of the protocol:
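The reported apparent KD is a per-design median over clusters, from curve fits of normalised cluster fluorescence. Protein titrations used SNAP-549-labelled MS2 coat protein, doubled from 0.7 or 1.5 nM to 3 µM, in Tris-HCl pH 7.5 buffer with KCl, MgCl2, BSA, DTT, tRNA and Tween-20, with no input, 200 uM small-molecule ligand, or an oligonucleotide input. The RNA switches were transcribed on Illumina chips by stalled E. coli RNA polymerase.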

Where [1] appears, read: input ligand: microRNA oligo, concentration not stated.

As to “ACACUGCGAGGAUAUACAUGAGGAUCACCCAUGUUAAGGAAGUCAAGGUUAAUUUAAGGUAGAAGGCGCGUAUU [JR_Ex3_Sub012] (Eterna round: R97, puzzle: Exclusion 3)”, the “apparent KD of MS2 coat protein” value is, setting by setting: (input ligand: FMN 200 uM) 54.6 nM; (input ligand: none) 38.2 nM.

As to “ACAGUGUUAGGAUAUGUGAGAGUUAGUCUCGACUAGUCGAAGCAGAAGGAACAUGAGGAUCACCCAUGUAGAUC [EX4 #78] (Eterna round: R97, puzzle: Exclusion 4)”, the “apparent KD of MS2 coat protein” value was 114 nM (input ligand: FMN 200 uM) and 46.7 nM (input ligand: none).

On to “ACAUGACUGCUAGGAUAUAGAUGACAUGAGGAUCACCCAUGUUAUCCCAUGUUGAUGGAAACCGACUAGAAGGAGCAGCAUAUG [Ex NG2 #10] (Eterna round: R96, puzzle: Exclusion NG 2)”, for which the “apparent KD of MS2 coat protein” value turned out to be 53.4 nM (input ligand: FMN 200 uM), 24.3 nM under setting [1] and 33 nM (input ligand: none).

“ACAUGAGGAUCACCCAUGUCCGGCUGGUCCGUCUCGGCUGUCGAGGAUAUAGCUUGGUGUCCGCGCUAGAAGGUGGGAGCCGGC [Aenatbe mod 71] (Eterna round: R96, puzzle: Exclusion NG 3)”: the “apparent KD of MS2 coat protein” value reads like this: (input ligand: FMN 200 uM) 166 nM; under setting [1], 105 nM; (input ligand: none) 154 nM.

Take “ACAUGAGGAUCACCCAUGUCCGUCUGGUCUGUCUCGGCUGUCGAGGAUAUAGCCCGGUAUCCGCGCUAGAAGGCGGGAGUCGGC [Aenatbe mod 97] (Eterna round: R96, puzzle: Exclusion NG 3)”: the “apparent KD of MS2 coat protein” value runs as follows: (input ligand: FMN 200 uM) 23.1 nM; under setting [1], 24.5 nM; (input ligand: none) 29.6 nM.

For “ACAUGAGGAUCACCCAUGUCGAGUACAUGAGGAUCACCCAUGUAGGAUAUGGUUCGCUUUGCGUGCUAGAAGGAUAUGUGAUGA [salish99_ExNG3_r04_512] (Eterna round: R96, puzzle: Exclusion NG 3)”, the “apparent KD of MS2 coat protein” value reads like this: (input ligand: FMN 200 uM) 488 nM; under setting [1], 229 nM; (input ligand: none) 326 nM.

For the sequence “ACAUGAGGAUCACCCAUGUCGAGUACAUGAGGAUCACCCAUGUAGGAUAUGGUUCGCUUUGCGUGCUAGAAGGAUAUGUGUUGA [salish99_ExNG3_r04_510] (Eterna round: R96, puzzle: Exclusion NG 3)”, the “apparent KD of MS2 coat protein” value reads like this: (input ligand: FMN 200 uM) 321 nM; under setting [1], 148 nM; (input ligand: none) 226 nM.

In the case of “ACAUGAGGAUCACCCAUGUGAAAAGAAUGGCUGACACAGAGAUAGGAUAUAUGUGCAUAUCUAACAUAGAAGGGUCAUGACUGG [Deportation 79 - Jieux - Exclusion NG 3] (Eterna round: R96, puzzle: Exclusion NG 3)”, the “apparent KD of MS2 coat protein” value is 28.6 nM (input ligand: FMN 200 uM), 21.6 nM under setting [1] and 33.1 nM (input ligand: none).

For the sequence “ACAUGAGGAUCACCCAUGUGACAAGAAUGGCUGAUACAGAGAUAGGAUAUAGGUGCAUAUCUAACCUAGAAGGGUCAUGACUGG [Deportation 75 - Jieux - Exclusion NG 3] (Eterna round: R96, puzzle: Exclusion NG 3)”, the “apparent KD of MS2 coat protein” value (input ligand: FMN 200 uM) amounted to 53.4 nM, the “apparent KD of MS2 coat protein” value under setting [1] was determined as 34.3 nM and the “apparent KD of MS2 coat protein” value (input ligand: none) turned out to be 37 nM.

Regarding “ACAUGAGGAUCACCCAUGUGACCACGAUGGCUGAUGUAGACCUAGGAUAUGAGUGAAUAUCUAUCUCAGAAGGAGGUUGACUGG [Deportation 50 - Jieux - Exclusion NG 3] (Eterna round: R96, puzzle: Exclusion NG 3)”, the “apparent KD of MS2 coat protein” value reads like this: (input ligand: FMN 200 uM) 46.7 nM; under setting [1], 52.1 nM; (input ligand: none) 61.2 nM.

Consider “ACAUGAGGAUCACCCAUGUGACCACGAUGGCUGAUGUAGAGACAGGAUAUGUGUGAAUAUCUAUCACAGAAGGGUCUUGACUGG [Deportation 54 - Jieux - Exclusion NG 3] (Eterna round: R96, puzzle: Exclusion NG 3)”, for which the “apparent KD of MS2 coat protein” value was 35.3 nM (input ligand: FMN 200 uM), 25.7 nM under setting [1] and 31.3 nM (input ligand: none).
